Measured values as given in patent EP1327681A1.

B1: antibody 12B5 (IgG) (antibody, from another filing)
scFv: QVQLVQSGGGLVRPGGSLSLSCAVSGITLRTYGMHWVRQAPGKGLEWVAGISFDGRSEYYADSVQGRFTISRDSSKNTLYLQMNSLRAEDTAVYYCARGAHYGFDIWGQGTMVTVSSGGGGTGGGGSGGGGSDIQMTQSPSTLSASIGDRVTITCRASEGIYHWLAWYQQKPGKAPKLLIYKASSLASGAPSRFSGSGSGTDFTLTISSLQPDDFATYYCQQYSNYPLTFGGGTKLEIK

Tests used:
[1] = molecular target: human TPO receptor (MPL) expressed on Ba/F3 cells (human) (UniProt P40238); experiment: cell-based or functional assay
[2] = molecular target: human TPO receptor (MPL) expressed on Ba/F3 cells (human) (UniProt P40238); experiment: cell-based or functional assay; remark: listed apart in the source

Molecule	ED50, proliferation of BaF/mpl cells (WST-8) [1]	ED50, TPO-like agonist activity, proliferation of BaF/mpl cells (WST-8) [2]
human TPO (R&D Systems) (from UniProt P40225 22-353) (ligand)	0.027 nM	–
B1	–	29 nM
